Source: patent US20250027068

Target: pooled human IgG

B1: PRT-298 (protein)
chain: MVTSVWTKGVTPPTDFIKGEDVFHAPYKAGQGWYDITKTFNGKDDLLCGAATAGNMLHWWFDQNKEYIEAYLKKHPEKQKIMFGDQELLDVRKAINTKGSQKNSELFNYFRDKAFPNLSARRLGVMPDLVLDMFINGYYLNVTKTQTTDVNRTYQEKDKRGGIFDAVFTRGDQSKLLTSRHDFKEKGLKEISDLIKQELTEGKALGLSHTYANVGINHVINLWGADFDSDGNLKAIYVTDSDSNASIGMKKYFVGVNSSGKVAISAKEIKEDNIGAQVLGLFTLSTGQDIWNQTN
B1 was tested, and the Enzyme Activity Endpoint Assay (purified): Fab'2 was 494 ng/µL, the Enzyme Activity Endpoint Assay (purified): Fc was 240 ng/µL and the Enzyme Activity Endpoint Assay (purified): IgG was 147 ng/µL. It also gave an Enzyme Activity Endpoint Assay (purified): scIgG of 35 ng/µL.

B2: PRT-306 (protein)
chain: MVTSVWTKGVTPPTDFIKGEDVFHAPYDAGQGWYDITKEFNGKDDLLCGAATAGNMLHWWFDQNKEYIEAYLKKHPEKQKIMFGDQELLDVRKAINTKGSQKNSELFNYFRDKAFPNLSARRLGVMPDLVLDMFINGYYLNVTKTQTTDVNRTYQEKDKRGGIFDAVFTRGDQSKLLTSRHDFKEKGLKEISDLIKQELTEGKALGLSHTYANVRIGHVINLWGADFDSDGNLKAIYVTDSDSNASIGMKKYGVGVNSAGKVAISAKEIKEDNIGAQVLGLFTLSTGQDIWNQTN
B2 was tested, and the Enzyme Activity Endpoint Assay (purified): Fab'2 was 467 ng/µL, the Enzyme Activity Endpoint Assay (purified): Fc was 336 ng/µL and the Enzyme Activity Endpoint Assay (purified): IgG was 341 ng/µL. For the same protein, the Enzyme Activity Endpoint Assay (purified): scIgG was 0 ng/µL.

B3: PRT-314 (protein)
chain: MQITSVWTKGVTPLTPEQFRENNEDVIHAPYLAHQGWYDITKAFDGKDNLLCGAATAGNMLHWWFDQNKTEIEAYLSKHPEKQKIIFGNQELFDLKAAIDTKDSQTNSQLFDYFRDKAFPNLSARQLGVMPDLVLDMFINGYYLNVGKTQSTDVNRPYQDKDKRGGIFDAVFTRGDQTTLLTARHDLKNKGLNDISTIIKQELTEGRALALSHTYANVSISHVINLWGADFNAEGELEAIYVTDSDANPSIGMKKYFVGRNAHGHVAISAKKIEGENIGAQVLGLFTLSSGKDQWQKLS
With B3 the Enzyme Activity Endpoint Assay (purified): Fab'2 was 599 ng/µL, the Enzyme Activity Endpoint Assay (purified): Fc was 286 ng/µL and the Enzyme Activity Endpoint Assay (purified): IgG was 101 ng/µL. For the same protein, the Enzyme Activity Endpoint Assay (purified): scIgG was 174 ng/µL.

B4: PRT-322 (protein)
chain: MTITSVWTKGVTPPTPEDFRENNEDVLHAPYVANQGWYDITKTFDGKDNLLCGAATAGNMLHWWFDQNKEEIERYLKKHPEKQKIIFNNQELFDVKAAIDTKDSQTNSKLFDYFRDKAFPNLSARQLGVMPDLVLDMFINGYYLNLGKTQSTDVNRPYQDKDKRGGIFDAVFTRGDQTTLLTARHDLKNKGLNEISDLIKQELTEGKALALSHTYANVRINHVINLWGADFDAEGNLIAIYVTDSDANASIGMKKYFVGRNANGKVAISAKKIEGDNIGAQVLGLFTLSTGQDQWQKLS
With B4 the Enzyme Activity Endpoint Assay (purified): Fab'2 was 506 ng/µL, the Enzyme Activity Endpoint Assay (purified): Fc was 381 ng/µL and the Enzyme Activity Endpoint Assay (purified): IgG was 387 ng/µL. The Enzyme Activity Endpoint Assay (purified): scIgG was 0 ng/µL.

B5: PRT-330 (protein)
chain: MTITSVWTKGVTPPTPEDFRENNEDVLHAPYVANQGWYDITKTFDGKDNLLCGAATAGNMLHWWFDQNKEEIERYLKKHPEKQKIIFGNQELFDVKAAIDTKDSQTNSKLFDYFRDKAFPGLSARQLGVFPDLVLDMFINGYYLNLGKTQSTDVNRPYQDKDKRGGIFDAVFTRGVQTTLLTARHDLKNKGLNEISDLIKQELTEGKALALSHTYANVRINHVINLWGADFDAEGNLIAIYVTDSDANASIGMKKYFVGRNANGKVAISAKKIEGDNIGAQVLGLFTLSTGQDQWQKLS
Work on B5 yielded an Enzyme Activity Endpoint Assay (purified): Fab'2 of 493 ng/µL, an Enzyme Activity Endpoint Assay (purified): Fc of 369 ng/µL and an Enzyme Activity Endpoint Assay (purified): IgG of 352 ng/µL. For the same protein, the Enzyme Activity Endpoint Assay (purified): scIgG was 0 ng/µL.

B6: PRT-25 (protein)
chain: MANQEIRYSEVTPYHVTSVWTKGVTPPANFTQGEDVFHAPYVANQGWYDITKTFNGKDDLLCGAATAGNMLHWWFDQNKDQIERYLKEHPEKQKINFNGEQMFDVKEAIDTKDSQTDSKLFEYFKEKAFPYLSTKHLGVFPDHVIDMFINGYRLSLTNHGPTPVKEGSKDPRGGIFDAVFTRGDQSKLLTSRHDFKEKNLKEISDLIKQELTEGKALGLSHTYANVRINHVINLWGADFDSNGNLEAIYVTDSDSNASIGMKKYFVGVNSAGKVAISAKEIEEDNIGAQVLGLFTLSTGQDIWNQTN
Protein B6 has an Enzyme Activity Endpoint Assay: Fab′2 of 56 ng/µL, an Enzyme Activity Endpoint Assay: Fc of 123 ng/µL and an Enzyme Activity Endpoint Assay: IgG of 20 ng/µL. For the same protein, the Enzyme Activity Endpoint Assay: scIgG was 0 ng/µL.

B7: PRT-27 (protein)
chain: MANQEIRYSEVTPYHVTSVWTKGVTPPANFTQGEDVFHAPYVANQGWYDITKTFNGKDDLLCGAATAGNMLHWWFDQNKDQIKRYLEEHPEKQKINFNGEQMFDVKEAIDTKNHQTDSKLFEYFKEKAFPYLSTKHLGVFPDHVIDMFINGYRLSLTNHGPTPVKEGSKDPRGGIFDAVFTRGDQSKLLTSRHDFKEKNLKEISDLIKKELTEGKALGLSHTYANVRINHVINLWGADFDSNGNLEAIYVTDSDSNASIGMKKYFVGVNSAGKVAISAKEIKEDNIGAQVLGLFTLSTGQDSWNQTN
B7 was tested, and the Enzyme Activity Endpoint Assay: Fab′2 was 44 ng/µL, the Enzyme Activity Endpoint Assay: Fc was 112 ng/µL and the Enzyme Activity Endpoint Assay: IgG was 14 ng/µL. It also gave an Enzyme Activity Endpoint Assay: scIgG of 13 ng/µL.

B8: PRT-29 (protein)
chain: MANQEIRYSEVTPYHVTSVWTKGVTPPANFTQGEDVFHAPYVANQGWYDITKTFNGKDDLLCGAATAGNMLHWWFDQNKDQIKRYLEEHPEKQKINFNGEQMFDVKEAIDTKNHQLDSKLFEYFKEKAFPYLSTKHLGVFPDHVIDMFINGYRLSLTNHGPTPVKEGSKDPRGGIFDAVFTRGDQSKLLTSRHDFKEKNLKEISDLIKQELTEGKALGLSHTYANVRINHVINLWGADFDSNGNLEAIYVTDSDSNASIGMKKYFVGVNSAGKVAISAKEIEEDNIGAQVLGLFTLSTGQDSWNQTN
B8 showed an Enzyme Activity Endpoint Assay: Fab′2 of 19 ng/µL, an Enzyme Activity Endpoint Assay: Fc of 95 ng/µL and an Enzyme Activity Endpoint Assay: IgG of 27 ng/µL. For the same protein, the Enzyme Activity Endpoint Assay: scIgG was 43 ng/µL.

B9: PRT-28 (protein)
chain: MANQEIRYSEVTPYHVTSVWTKGVTPPANFTQGEDVFHAPYVANQGWYDITKTFNGKDDLLCGAATAGNMLHWWFDQNKDQIKRYLEEHPEKQKINFNGEQMFDVKEAIDTKDHQLDSKLFEYFKEKAFPYLSTKHLGVFPDHVLDMFINGYRLSLTNHGPTPVKEGSKDPRGGIFDAVFTRGDQSKLLTSRHDFKEKTLKEISDLIKKELTEGKALGLSHTYANVRINHVINLWGADFDSNGNLKAIYVTDSDSNASIGMKKYFVGVNSAGKVAISAKEIKEDNIGAQVLGLFTLSTGQDSWNQTN
Work on B9 yielded an Enzyme Activity Endpoint Assay: Fab′2 of 16 ng/µL, an Enzyme Activity Endpoint Assay: Fc of 89 ng/µL and an Enzyme Activity Endpoint Assay: IgG of 14 ng/µL. For the same protein, the Enzyme Activity Endpoint Assay: scIgG was 44 ng/µL.

B10: PRT-26 (protein)
chain: MANQEIRYSEVTPYHVTSVWTKGVTPPANFTQGEDVFHAPYVANQGWYDITKTFNGKDDLLCGAATAGNMLHWWFDQNKDQIERYLKEHPEKQKINFNGEQMFDVKEAIDTKDSQTDSKLFEYFKEKAFPYLSTKHLGVFPDHVLDMFINGYRLSLTNHGPTPVKEGSKDPRGGIFDAVFTRGDQSKLLTSRHDFKEKTLKEISDLIKQELTEGKALGLSHTYANVRINHVINLWGADFDSEGNLKAIYVTDSDSNASIGMKKYFVGVNSAGKVAISAKEIKEDNIGAQVLGLFTLSTGQDIWNQTN
For B10, the Enzyme Activity Endpoint Assay: Fab′2 was 40 ng/µL, the Enzyme Activity Endpoint Assay: Fc was 101 ng/µL and the Enzyme Activity Endpoint Assay: IgG was 11 ng/µL. For the same protein, the Enzyme Activity Endpoint Assay: scIgG was 14 ng/µL.
